Experiment: soluble fraction after stress (log2 fold change); higher = more stays soluble; pooled small domains, quantitative proteomics
Details: stress: pH 4
Method in brief: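 Aggregation propensity here comes from the fold change in the soluble amount of each small protein domain after acid stress, measured in pooled custom libraries by high-throughput quantitative proteomics. The acid stress was pH 4. On the log2 scale, higher values mean more of the domain stayed soluble.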
With “HMRESPYRRVAKFLLLIGTAEAAKIVSRLDQDQVEKVMLELSGIRSVPRDEATVILAEFESLLQQAR” the “soluble fraction (log2)” value was -1.2. For “HMRESRLFQILYQLLTKKKVTAANLAKQFEVSVRTIYRDIDALSSSGIPIYASQGKNGGIQLDEDF”, the “soluble fraction (log2)” value was -0.999. For “HMRETELPVTIISAGRILAENLHLAGRDGGWLEAELKRRSLTAEQVLLLTVDAAGTVYLVRKEDL”, the “soluble fraction (log2)” value was -0.617. In the case of “HMREWPLWEIFIRGQHGLNHRHVGSLHAPDAAMAIGNARDVYTRRNEGVSIWAVRSADVVASVPSE”, the “soluble fraction (log2)” value is reported as -1.44. For “HMRGADNAASILKEVGPHPEDGKPITVRSGRYGPYVKHGTTNATLPKDIKPEEITLDEAIALINERVAKG”, the “soluble fraction (log2)” value was -0.143. For “HMRGGKGTVPDVTGMDAAAAVRILEKAGMNVAYIRGAGFVAEQTPAAGTKLKKGDKAYITLSWK”, the “soluble fraction (log2)” value was 0.181. With “HMRGGWESLTDREREIAVLAAEGHSNRTIASTLFISDRTVQSHVSRALRALGVDSRTGIPSLVTTATR” the “soluble fraction (log2)” value was -0.217. In the case of “HMRGWGTVKRRTPKSGRYRASYIGPDGKRYAADHTYAAKVDADAWLSSERALITAGVWTPPTDRVT”, the “soluble fraction (log2)” value is reported as -0.0591. In the case of “HMRHLSVPSQDTQQVLQRLKVELALPEGARVRSDPSDPGRRLIPFTESVPQEMIDQYPVVSINI”, the “soluble fraction (log2)” value is reported as -0.458. In the case of “HMRIAGIDIPDNKRGEVALTYIFGIGRSSSKKILKSAGIDSDKQIGKWTDDESNLVRKLIRDEYTIEGDL”, the “soluble fraction (log2)” value is reported as -0.484. With “HMRIASANAIYDELLNKRDDAKLAELKQEDINLYALYILQNGSADERAALENTQGIDVVLKEIINLQNG” the “soluble fraction (log2)” value was -0.416. For “HMRIGINDRIHEIVDVLRLKKSTPFEDLFSGLVTRFDLVITFLALLEMGKLRLLRLYQTDPLAPLHVEYTG”, the “soluble fraction (log2)” value was 0.0416. For “HMRILDFPALKTEFDQLTKDLMAKYPEDGADRVRAIIETVLGPGKKVGALQPHQAELLAEVNTSLKANL”, the “soluble fraction (log2)” value was -0.0969. For “HMRILGIDPGTRITGYGIIDIEGNRLRHVDNGIIKTRSSDALPLRLKVIYDGLTAVLKQYSPQAV”, the “soluble fraction (log2)” value was -0.629. For “HMRIQTVDYNTFISMVEDGKVDAAEIQQQENRILFSDQDQKVYKTAMVPDDDLTQRLLDAGVSTNG”, the “soluble fraction (log2)” value was -0.837. In the case of “HMRISKRQLILESAAAIINEKGADYLTLDAVAQRAGISKGGLFYHFKSKDELIKELVNYANN”, the “soluble fraction (log2)” value is reported as -1.57. With “HMRISLKAQVYEYLKQAIINGDLKVGEIYSEQYFADKLSISRTPVREAILQLQHENMVEVKANRGIIVK” the “soluble fraction (log2)” value was -0.406. With “HMRITTKNYFKAISEVGFENLPEVLKKSHLVIEEKTNKGNDWGIYENDAEAKKVFDLAFDKLEEFIDRKED” the “soluble fraction (log2)” value was -0.203. With “HMRIVQTDYRNFLSQVESGAVRSVQIDETQIRYTALDSGGKEIVYNTGKVDDPGLVNRLYDAGVEFSQVIP” the “soluble fraction (log2)” value was -1.23. For “HMRKATEVPFTAFKDSIENSHGKLSKAGLARHLADEYGMSQRNMERRINNLIDNKTIKYGNEGGLVWIG”, the “soluble fraction (log2)” value was 0.22. With “HMRKDWTPGAFVEAFVNDTPATRSTILAKAVSAGLSRWAADNLLRTADNDGLMVRQGSGKRNEPFTYRRGP” the “soluble fraction (log2)” value was 0.22. In the case of “HMRKEEFIRELVLELKQNVSEQVILEQKRFYEEYILTEVRGGKTEEEVIASLSEPRLLAKSIIDAAEAGGD”, the “soluble fraction (log2)” value is reported as -1.5. In the case of “HMRKKDGEAYVLPRPLKKGDSVLIYDIDKKGTVLQPPEKGGKTALIQAGIIQTRVPVSNLRLLE”, the “soluble fraction (log2)” value is reported as -0.0646. With “HMRKKIIAQTLEEIRKSKGYSQKQVAAFIKVKPTTYNTYESGRTEPPAEILVRLSYLYRTPVDTLVQRDR” the “soluble fraction (log2)” value was 0.226. For “HMRKMNDAVFYVEMSRPKRGYYTATYKLITRNPNSLPEHEITRRFFQMLEETIRKNPPYYLWTH”, the “soluble fraction (log2)” value was 0.104. With “HMRKPISQEIVDEVLKLAKNNPDWGYDRIAGVMKYLKYDVSATTVRHILDDNGIVPDPERRLR” the “soluble fraction (log2)” value was -0.0119. With “HMRKRLLQLVHIGKSQLGMDDETYRSLLSQQFYQNSAKNISYSELVKLVKILQQKGAKIRLPH” the “soluble fraction (log2)” value was 0.262. For “HMRKVVLEEKEANYYAEPNSESELLGVLKRGIHLTVTDVKKEAGSDGWVKLVHPDGQEGWISGRARIRV”, the “soluble fraction (log2)” value was -0.209. For “HMRKYKIKEELPDNIYKIIQDNPGIVQKDIYDILGREYQQNISSYIYSMDKNGVIKRDKHGNSYKLYL”, the “soluble fraction (log2)” value was -1.01. In the case of “HMRLATSELVYRIRALIRDQELQPGERLGSERALAQSLGISRSDLRMALAVLEASHEVIRKIGRAGGIVVS”, the “soluble fraction (log2)” value is reported as no less than 0.43. With “HMRLHSSGEDYLKAIFILEAQHSSVRSVEVAEYMNVSKASVSHAVALLKKNGFLKMNQDYDLTER” the “soluble fraction (log2)” value was -0.906. For “HMRLIALPSVTDISIRQAEATLMSIGIKVSSIQYAPSEYKDLVLEVKYRGQSIIQGAKIPEGSSVVLVAGN”, the “soluble fraction (log2)” value was -0.122. With “HMRLPLYLALAQTLRQEIDAKQYKIGAHLPPEDQLVVKYGVSRHTVRQALQELKNEGLITSKAGIGTIVSS” the “soluble fraction (log2)” value was 0.154. In the case of “HMRLPQEVWEKIRAAYEAHGLSFSELAEMYGVNKSNISRRAKAEGWNQAETQRLITATVENE”, the “soluble fraction (log2)” value is reported as 0.211. With “HMRLREETRKVDKTGLIQVDGRHYRVPDEYSQKDVQILMDDNSIMVYRKGDFVIELDKETSVYMPH” the “soluble fraction (log2)” value was -1.02. For “HMRMETRILTADESGIRLDAFLASRLAVSRSLAASLIDDGNVTLNGTVPKKKTAVNVGDILEVAMP”, the “soluble fraction (log2)” value was 0.22. With “HMRMLTKRRQDLLLELLEERGSITVSEVKDMLDASESTIRRDITALDEEGKLVKVFGGAVAAR” the “soluble fraction (log2)” value was -0.465. With “HMRMSRSARLFDLLHILRSHRRAVSGQALAQQLGISIRTLYRDIASLQAQGAKIEGEPGVGYMLKP” the “soluble fraction (log2)” value was -0.0136.
